This is an account of results in publication PMC7076025, “A unique DNA-binding mode of African swine fever virus AP endonuclease”.

This series deals with T1, AsfvAP WT (African swine fever virus, UniProt P0C9C6 1-296).
T1 sequence: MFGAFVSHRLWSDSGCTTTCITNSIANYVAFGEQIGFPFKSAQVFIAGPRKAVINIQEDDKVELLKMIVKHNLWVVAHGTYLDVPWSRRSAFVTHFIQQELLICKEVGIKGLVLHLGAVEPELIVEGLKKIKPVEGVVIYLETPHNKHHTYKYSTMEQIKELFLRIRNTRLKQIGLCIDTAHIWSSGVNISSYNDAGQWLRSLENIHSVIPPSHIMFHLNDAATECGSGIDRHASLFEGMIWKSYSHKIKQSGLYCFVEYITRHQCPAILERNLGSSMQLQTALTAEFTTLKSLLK
Kind of series: X-ray crystallography. To be noted: protein: recombinant; tags: His-SUMO removed with Ulp1; GSGGG linker encoded before M1.

B1: DNA-2 (dsDNA)
DNA 1: GCAGCGTCACCGACGAAA
DNA 2: CCTCGTCGGGGACGCTGC
Turning to B1, the binding result is “binds”.
